This series deals with T1, Pr(brC)2 (UniProt P03069 226-249+=GC, internal_change).
T1 chain: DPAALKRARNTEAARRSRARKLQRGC
Briefly: EMSA.

B1: Random (dsDNA)
DNA 1: AGCGCACGTCCTGCACGTC
DNA 2: GACGTGCAGGACGTGCGCT
B1: the binding result is “no binding”.

The values are drawn from article PMC8979313.
